Experimental data taken from patent US20100034831A1 (DOMANTIS, published 2010).

T1: mouse TNFR1 on L929 fibroblasts (mouse, UniProt P25118 30-454)
T1 sequence (looked up): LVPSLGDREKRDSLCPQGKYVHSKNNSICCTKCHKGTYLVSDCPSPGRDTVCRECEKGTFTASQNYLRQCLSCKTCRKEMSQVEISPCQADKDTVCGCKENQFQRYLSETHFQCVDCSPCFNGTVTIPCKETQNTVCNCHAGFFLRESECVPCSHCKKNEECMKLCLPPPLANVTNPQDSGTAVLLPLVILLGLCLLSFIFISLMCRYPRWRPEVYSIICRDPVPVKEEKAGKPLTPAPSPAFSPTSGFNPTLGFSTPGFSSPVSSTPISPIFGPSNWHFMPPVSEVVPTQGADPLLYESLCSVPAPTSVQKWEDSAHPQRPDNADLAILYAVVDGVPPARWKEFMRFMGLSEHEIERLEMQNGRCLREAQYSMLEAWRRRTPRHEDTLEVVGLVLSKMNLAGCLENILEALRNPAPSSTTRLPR


Target: T1, mouse TNFR1 on L929 fibroblasts
Assay: cell-based or functional assay

Potency, ND50 L929 assay [nM]	Binder
5	TAR2m-15-12 (anti-TNFR1 dAb) (other) DIQMTQSPSSLSASVGDRVTITCRASQYIHTSVQWYQQKPGKAPKLLIYGSSRLHSGVPSRFSGSGSGTDFTLTISSLQPEDFATYYCQQNHYSPFTYGQGTKVEIKR
1	TAR2m-21-23 (anti-TNFR1 dAb monomer) (other) VH: EVQLLESGGGLVQPGGSLRLSCAASGFTFNRYSMGWLRQAPGKGLEWVSRIDSYGRGTYYEDPVKGRFSISRDNSKNTLYLQMNSLRAEDTAVYYCAKISQFGSNAFDYWGQGTQVTVSS
1	PEG DOM1M (anti-TNFR1 dAb monomer TAR2m21-23 PEGylated with a 40 kDa polyethyleneglycol) (other, PEGylated with a 40 kDa polyethyleneglycol (attachment site not stated)) VH: EVQLLESGGGLVQPGGSLRLSCAASGFTFNRYSMGWLRQAPGKGLEWVSRIDSYGRGTYYEDPVKGRFSISRDNSKNTLYLQMNSLRAEDTAVYYCAKISQFGSNAFDYWGQGTQVTVSS
